B1: Death-associated protein kinase 3 (Rattus norvegicus (Rat)), O88764 (parent)
chain: MSTFRQEDVEDHYEMGEELGSGQFAIVRKCQQKGTGMEYAAKFIKKRRLPSSRRGVSREEIEREVSILREIRHPNIITLHDVFENKTDVVLILELVSGGELFDFLAEKESLTEDEATQFLKQILDGVHYLHSKRIAHFDLKPENIMLLDKHAASPRIKLIDFGIAHRIEAGSEFKNIFGTPEFVAPEIVNYEPLGLEADMWSIGVITYILLSGASPFLGETKQETLTNISAVNYDFDEEYFSSTSELAKDFIRRLLVKDPKRRMTIAQSLEHSWIKVRRREDGARKPERRRLRAARLREYSLKSHSSMPRNTSYASFERFSRVLEDVAAAEQGLRELQRGRRQCRERVCALRVAAEQREARCRDGSAGLGRDLRRLRTELGRTEALRTRAQEEARAALLGAGGLKRRLCRLENRYDALAAQVAAEVQFVRDLVRALEQERLQAECGVR
partner: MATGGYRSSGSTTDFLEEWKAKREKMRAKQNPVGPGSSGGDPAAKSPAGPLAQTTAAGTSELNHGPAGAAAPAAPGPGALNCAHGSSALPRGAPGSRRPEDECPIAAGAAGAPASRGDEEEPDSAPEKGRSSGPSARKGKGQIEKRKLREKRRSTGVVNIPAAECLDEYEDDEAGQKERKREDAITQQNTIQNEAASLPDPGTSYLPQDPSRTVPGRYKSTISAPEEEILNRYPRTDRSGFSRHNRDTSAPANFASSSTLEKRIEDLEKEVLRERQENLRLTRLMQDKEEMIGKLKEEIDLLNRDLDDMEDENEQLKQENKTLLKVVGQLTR

Variants of: B1
Conditions: with pawr_rat Pawr

How did the “effect of a mutation on the interaction” value turn out when K42A was run?
Its value is “disrupting interaction”.

From IntAct's records for PubMed 10602480
